Series [1] in a line: Circular dichroism thermal denaturation. It is filed as physicochemical. The conditions noted are these: stable α-helical structure, PBS pH 7.4, heated from 0-98° C. As to the method:
Circular dichroism experiments were performed on an Aviv 62A DS circular dichroism spectrometer. Measurements from […] were performed in a 10 μM solution of protein sample in PBS (50 mM Na phosphate, 150 mM NaCl, pH 7.4) in a 1-mm path-length cuvette. Thermal denaturation was performed in a 10 mm path-length cuvette and samples were heated from 0-98° C., with equilibration times of 2 minutes and an averaging time of 1 minute. Protein concentrations were determined by absorbance at 280 nm in 20 mM phosphate-buffered 6M guanidine-hydrochloride (pH 6.5) (H. Edelhoch, Biochemistry 6, 1948-54 (1967)).
On the technique in general: Circular dichroism is widely used to follow secondary structure.

A short description of series [2]: Solubility in physiological buffers. It is filed as physicochemical.
The next series concerns the target T1, Bcr-Abl (Homo sapiens, UniProt P00519+P11274).
T1 construct: c-Abl portion (ABL1, fusion partner)
T1 sequence (P11274 1-426 limits assumed): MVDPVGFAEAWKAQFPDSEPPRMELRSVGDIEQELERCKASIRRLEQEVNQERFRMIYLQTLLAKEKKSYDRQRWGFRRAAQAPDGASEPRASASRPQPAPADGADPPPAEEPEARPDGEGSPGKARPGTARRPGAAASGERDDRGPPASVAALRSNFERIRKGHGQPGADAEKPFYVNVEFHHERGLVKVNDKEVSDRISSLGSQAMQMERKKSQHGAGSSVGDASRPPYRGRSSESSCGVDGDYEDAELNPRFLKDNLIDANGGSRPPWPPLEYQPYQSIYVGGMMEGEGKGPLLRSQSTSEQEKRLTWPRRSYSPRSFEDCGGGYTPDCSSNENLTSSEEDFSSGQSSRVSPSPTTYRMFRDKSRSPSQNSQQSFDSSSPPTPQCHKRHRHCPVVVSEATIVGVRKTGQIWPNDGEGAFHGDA
The conditions noted are these: literature reports (Guo 1998; Wu 1999); cited from earlier work.

Series [3] relates to Bcr-Abl transformation of Rat-1 fibroblasts. Nature of the series: Rat-1 focus-formation assay. It is filed as cell-based. The conditions noted are these: Rat-1 fibroblasts cotransfected with MIG-P210 and increasing doses of plasmid B74; foci counted after 3 weeks. The protocol: FIG. 5 is a graphic representation of results of a Rat-1 focus-formation assay. Data shown are the average of three dishes and are representative of four independent experiments. Error bars indicate the standard deviation of foci numbers between the experiments.
Whether the Bcr-Abl oligomerization domain inhibits full-length Bcr-Abl oligomerization in a dominant-negative manner was assessed. […] The total number of transformed foci was quantified after 3 weeks. Transected cultures were stained with 0.4% crystal violet to better visualize transformed foci.
For expression in mammalian cells, Bcr1-74 fragments were PCR amplified from pMBP/Bcr1-74 (with the optimal E. coli codons) as mentioned above, and inserted into the retroviral expression vector pMX-IRES-GFP (X. Liu et al., Anal Biochem 280, 20-28 (2000)) using BamHI and NotI sites. The resulting plasmid was denoted p74-IES-GFP (B74). Although it has been reported that the Bcr oligomerization domain as contained in residues 1-71 (SEQ ID NO: 19; SEQ ID NO: 20) of the Bcr protein cannot be stably expressed in mammalian cells (C. L. Sawyers, N Engl J Med 340, 1330-40 (1999)), a fair amount of Bcr1-74 (SEQ ID NO: 7) protein was detected by Western blotting when B74 was expressed in vivo. It is possible that use of E. coli-optimized codons improved expression in this domain. […] The total number of transformed foci was counted after 3 weeks.

For series [4], the target named is Bcr1-72C38A (Bcr-Abl oligomerization domain, residues 1-72 of human Bcr, Cys38 mutated to Ala), monomer chain (human). The experiment in a line: X-ray crystal structure, interface analysis.
The target is the same in series [5]. The experiment in a line: X-ray crystal structure, buried surface.
Series [6] addresses Bcr1-72C38A dimer (domain-swapped antiparallel coiled-coil dimer seen in the crystal) (human). The experiment in a line: X-ray crystal structure, buried surface.

On to “Ac-DIEQELERCKASIRRLEQEVNQERFRMIYLQTLLAK-NH2 [Bcr30-65]”, for which the “midpoint of thermal denaturation (Tm)” value in series [1] came out at 60 °C. Moreover, the “solubility in physiological buffers” value in series [2] is listed as “poor solubility”.

B1: full-length Bcr: Full-length human Bcr protein, 1271 amino acids (literature) (protein, UniProt P11274 1-1271, looked up)
chain: MVDPVGFAEAWKAQFPDSEPPRMELRSVGDIEQELERCKASIRRLEQEVNQERFRMIYLQTLLAKEKKSYDRQRWGFRRAAQAPDGASEPRASASRPQPAPADGADPPPAEEPEARPDGEGSPGKARPGTARRPGAAASGERDDRGPPASVAALRSNFERIRKGHGQPGADAEKPFYVNVEFHHERGLVKVNDKEVSDRISSLGSQAMQMERKKSQHGAGSSVGDASRPPYRGRSSESSCGVDGDYEDAELNPRFLKDNLIDANGGSRPPWPPLEYQPYQSIYVGGMMEGEGKGPLLRSQSTSEQEKRLTWPRRSYSPRSFEDCGGGYTPDCSSNENLTSSEEDFSSGQSSRVSPSPTTYRMFRDKSRSPSQNSQQSFDSSSPPTPQCHKRHRHCPVVVSEATIVGVRKTGQIWPNDGEGAFHGDADGSFGTPPGYGCAADRAEEQRRHQDGLPYIDDSPSSSPHLSSKGRGSRDALVSGALESTKASELDLEKGLEMRKWVLSGILASEETYLSHLEALLLPMKPLKAAATTSQPVLTSQQIETIFFKVPELYEIHKEFYDGLFPRVQQWSHQQRVGDLFQKLASQLGVYRAFVDNYGVAMEMAEKCCQANAQFAEISENLRARSNKDAKDPTTKNSLETLLYKPVDRVTRSTLVLHDLLKHTPASHPDHPLLQDALRISQNFLSSINEEITPRRQSMTVKKGEHRQLLKDSFMVELVEGARKLRHVFLFTDLLLCTKLKKQSGGKTQQYDCKWYIPLTDLSFQMVDELEAVPNIPLVPDEELDALKIKISQIKNDIQREKRANKGSKATERLKKKLSEQESLLLLMSPSMAFRVHSRNGKSYTFLISSDYERAEWRENIREQQKKCFRSFSLTSVELQMLTNSCVKLQTVHSIPLTINKEDDESPGLYGFLNVIVHSATGFKQSSNLYCTLEVDSFGYFVNKAKTRVYRDTAEPNWNEEFEIELEGSQTLRILCYEKCYNKTKIPKEDGESTDRLMGKGQVQLDPQALQDRDWQRTVIAMNGIEVKLSVKFNSREFSLKRMPSRKQTGVFGVKIAVVTKRERSKVPYIVRQCVEEIERRGMEEVGIYRVSGVATDIQALKAAFDVNNKDVSVMMSEMDVNAIAGTLKLYFRELPEPLFTDEFYPNFAEGIALSDPVAKESCMLNLLLSLPEANLLTFLFLLDHLKRVAEKEAVNKMSLHNLATVFGPTLLRPSEKESKLPANPSQPITMTDSWSLEVMSQVQVLLYFLQLEAIPAPDSKRQSILFSTEV
modifications: full-length
Turning to B1, in the series with Bcr-Abl, the Bcr-Abl transformation result is recorded as “inhibit Bcr-Abl transformation”.

B2: N-terminal 160 amino acids of Bcr: N-terminal 160 amino acids of Bcr, which contain the oligomerization domain (literature) (protein, UniProt P11274 1-160, looked up, fragment)
chain: MVDPVGFAEAWKAQFPDSEPPRMELRSVGDIEQELERCKASIRRLEQEVNQERFRMIYLQTLLAKEKKSYDRQRWGFRRAAQAPDGASEPRASASRPQPAPADGADPPPAEEPEARPDGEGSPGKARPGTARRPGAAASGERDDRGPPASVAALRSNFER
Consider B2, for which the Bcr-Abl transformation result with Bcr-Abl is reported as “inhibit Bcr-Abl transformation”.

B3: Bcr1-74: Residues 1-74 of human Bcr; expressed in Rat-1 cells from retroviral plasmid B74 (p74-IRES-GFP) (protein, UniProt P11274 1-74, looked up, fragment)
chain: MVDPVGFAEAWKAQFPDSEPPRMELRSVGDIEQELERCKASIRRLEQEVNQERFRMIYLQTLLAKEKKSYDRQR
Consider B3, for which the “transforming potential of Bcr-Abl (number of transformed foci)” value in series [3] was “inhibited the transforming potential of Bcr-Abl”.

B4: Bcr1-72C38A (Bcr-Abl oligomerization domain, residues 1-72 of human Bcr, Cys38 mutated to Ala), monomer chain (protein, UniProt P11274 1-72 with C38A, looked up)
chain: MVDPVGFAEAWKAQFPDSEPPRMELRSVGDIEQELERAKASIRRLEQEVNQERFRMIYLQTLLAKEKKSYDR
modifications: oligomerization domain residues 1-72 selenomethionine form also used
Turning to B4, in series [4], the hydrogen bonds in the dimer interface (hydrogen bonds) was determined as 3, the salt bridges in the dimer interface worked out at 7 salt bridges and the van der Waals contacts in the dimer interface (radius cutoff 4 Å) was 217 contacts. In series [5], the solvent-accessible surface buried upon dimer formation amounted to 4200 Å^2.

B5: Bcr1-72C38A dimer (domain-swapped antiparallel coiled-coil dimer seen in the crystal) (protein, UniProt P11274 1-72 with C38A, looked up)
chain: MVDPVGFAEAWKAQFPDSEPPRMELRSVGDIEQELERAKASIRRLEQEVNQERFRMIYLQTLLAKEKKSYDR
modifications: oligomerization domain residues 1-72, homodimer
Molecule B5 returned a solvent-accessible surface buried upon association of two dimers in series [6] of 3400 Å^2.

B6: Bcr1-72: Recombinant wild-type polypeptide, residues 1-72 of the N-terminus of human Bcr (oligomerization domain) (protein, UniProt P11274 1-72, looked up, fragment)
chain: MVDPVGFAEAWKAQFPDSEPPRMELRSVGDIEQELERCKASIRRLEQEVNQERFRMIYLQTLLAKEKKSYDR
Take B6: in series [1], the “midpoint of thermal denaturation (Tm)” value was 84 °C.

The values are drawn from patent US20030064061A1, “Bcr-Abl oligomerization domain polypeptides and uses therefor” (Whitehead Institute for Biomedical Research, priority 2001, published 2003).
